The record followed here is a protein production outcome set (Wang et al. 2014).
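Note: failed if final PepcDB status was selected cloned or expressed and not failed if soluble or beyond.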

The nature of the data set: label from the status in PepcDB records.
“MNSAARNAPAGSQPVKAELWKRVYSRVGSYWKGLVLAVLLMAGAAATQPTLAVIMKPLLDDGFSGAKPHYVWFLPLAVVGLILLRGICNFFSDYLLAWVANNVLRGIRGEMFERLLGLPDADFKRGDTGRLLNRFTIDAGNVTGYATDVITVLVRETLVVIALIGVLLYMSWALTLIILVMLPVSVGIARAFTRRLRRINRETVNMNAELTRVVSEGIDGQRVIKLFDGYDAERRRFDFVNSRLRRFAMRSATADAALTPLTQVCISVAVGAVIAVALSQANSGALTVGSFASFMAALAQIFDPIKRLTNLAGKMQKMLVAAESVFTLVDQTPEADAGTRALPEPVRGKVEFRAVSHRFPDADRDTVSAVSFLVEPGQTVALVGRSGSGKTTLVNMLPRFVLPDGGDILFDDVPIQDLTLRSLRSHLSLVSQDVVLFDDTIAANVGYGAGGTVDDARVRDALAAANLLEFVDGLPLGIHTPVGQNAARLSGGQRQRLAIARALIKNAPVLILDEATSALDNESERQVQASLERLMRGRTTLVIAHRLSTVQNADRIIVLDAGKIVEHGPHSELLAANGLYASLYNMQFRED”: the protein production result is reported as “failed”.

Regarding “MNSDGSDNFELVKKSYGRNFSGISGCAWSPDGSRIAYISSDHNGSDRLVTLNPDGSNEQIVASFAEISALAWAPDSSGMAFNAAYSEDGQTGIYLADLESSEPVFLVRGEIRQQIQSWQSEVWSPDGSRILYSSNENGNSDTNENGNSDIYSVNTDGSEKIQLTDDNSKDYSPCFSPDGSKIIFISDRTGHSSIWIMSSNGDKEEELTEGFEGIHDFSWNPNGQKIAFSSDSNSYIQEIDYSESGDEDSQDDSSSDDSDNDTEVNPEYLHMEILSPDLNFAASQGTPELITVRITNNSGSPVQSSGFKFIKANFSNGDPELQLFDDGTHEDITASDGIFSNQWIPVNTTGLPLTLCILWASADHESLGDAEQIISGTISRKPIPSDLVIENISWSPADPYVNDNITFSITSANRGSGPSEACKVKCYINGNEAYSYSLPELEARSSTSIIFSWIPTAPGNIDVKAVVDEENQVSESVEENNEKSVSFSVKSLTPSTSSGKSGGKSSSSGGGGGGGGSPEPASNVRIKELSQQYITSGKYAKFAFPRNATCVTHVAFNSRRTAGKTTTIVEMLKNKSTRVPDLPAGKIYENVNIWVGNKGTADPENIENAVVGFRVEKSWITLNDVDPASVRLWRLSSGEWEELSIRQSGEDDRYSYFEAQTEGFSHFVITAPSGENETIENALKSSIVPPVRSSAEVMEELFGKLSGKQNADFPVISAMSVNESGSEPEAPSTAGHAADRITGRGIIKVLVVIALLSVTGFLGSLILRKQN”, the protein production entry is “failed”.

With “MNSEIFRIFRKKYSEEIRNPPMNATTLPEALKLMQYIGDAIGTIRDPQELFRTVTDKLRLLFAFDSAVIITIDRERREASVFFEMLRFELPEQLRHQTRSIAGTWLEGHLDDRTVTVASIARDIPSFGADGAPLLWTLHELGMRQIVLSPLRSGGRVIGFLSFVSAEEKLWSDGDKSLLSGVSSSIAIAVSNALAYEELRQRE”, the protein production entry was “failed”. Then “MNSFAEKLMVGATAPSASVELPLGDRVRCVLVHEFLSASECEALIEATEQCGFASAGSDYPSSYRDNDRIVADDPAMAGRLFERLKHCASRMPKLGTVIDEDGWRPVGINERLRFCRYRPGTQFRAHQDGVHHRQRQQSRLTFMIYLNDDAFSGGETLFFEGRSAAMSNRDSTLRLRPRKGSLIVFDHTLWHAGALVDAGQKYVMRSDLMYEPQQSLQVDGPFQPGHRGYVWALADLGDRGFASAGRDATIRLWDHEGRCLGQLDGHTQSILGLVDVAPGELVSHSRDRTVRHWSLATGKSTLVGTSDSAVLSSARLGADRLVTGAADGCLTVWNLATGAADRRQAHACWVWAIAPTGDGSFASASEDGTVRLWQPEERDCVQVLDLGRPLRMLASWIDADGSVTLAVGDLDGAVHLLATEPRLALLDCLAAHDGPVRRVRFEARHMLLTCGEDGLVRRWNLPSRQGAIIGSHDNFATDVLPTRAGGWISCGYDGRILVHGDKG”, with “failed”; and “MNSFSSKNPEGCSLKVLIKYLLKLSVVPFLIGLGGFIVFVSLEILYQLSDLIVRHRVGIEKLFLMLYYYLPYFVAMGVPVGVLLAIFWTFSRLSEERELMAIQVHGISQKNLIVPFLILGALLSIAVFFLSDQIVPEYQSKAEEAMSKYVLKKPEVFVVENVISKIGDDQYFYVEKYDERTSTMWNVVIFRYGHEETIVTAKRVQKKGNDWYLFDGNYYTVDKDGFLKLDVHFSEMKLDITEDIEKLLRVGKTPKEMTGKELKEKIEFFKKVGVKPSPWVVELHSRYANSLTPIVIVLVGVPLSLLFQLRSKSWGVIFTFVLVVLYQGSGAWLSAMGKENLLNPVLAPWIPNIVFTIVGTLLFILLDTFFAYRITEFLSRLFFVAFIFTVSSLFSSQVVIVSDRMEKFPEEMVFHGSVEIAYKDMTVQASEATIQLTEEGKAKKLEASGGVIYRKADTILMGEHLIFYLENEKSVLTHIRGSTVLEIEKEKKKIYLSGEDLTSEGSRTIVDMGSISTCSETPPHYKLKARYIEIKENDYLLAKDVVFYLLEIPLFYQPIFFTSLSDKPQPFSVEVGVGNNPHLKTSYNVSYPSGLLYFSTKSVLSGGLSKELNWNHKMGSWSLNLDYKESTSHSVLVKIFDSKNTFLFSQKNEERIHQFERKEKILNGSLNVVLRKESDGEDSYILPRVTVKKVSVKTGVGTFSVDSFNHETRIEDQEKRNSGSVSLSFRSVPFLLFQSVSVSTTGKYLFENQNLDERTSYLKTDSIWDFQNLSLGKFLVLDDKIYAGVYRSNEDGYRVGNLFTTTLRVPLGPFSFESYYKLFTVSGENLRKFSQNESKNEVDLKVSFSYENFKSSLETTYDFLEKEFSDPYLKTSYSFKTGDITHTVDSTTRFVLDEISRSYTTWNFQQRMGAFLNRFYFTYYYREPHVKYVEDQMRIYGKNFLFMENPRITTYTKLSVDPFELDEFWIRGTFKKGESTHSLKMSYSSDNLEFSYQTKNGDPALEISFSLKDWNVEKFSLSVEKALHCLGTKISTSFGRNFTLESFSILFFIRDFPNSGIGFDTEEGIGLNVF”, with “failed”. With “MNSFWLSLAPVLWLTIIAIPVGILFNAAIVFGLYSIILLGIVIYHIHTLYCLEQWLHHSDLSYATVPDRSGLWGVVFARLARFVRRHDKERLGLNTSLERLQRATSALPEGIVILGDKDQIEWCNSAAERHLGLNLEMDAGQHITRMVRQVRFVAYLDMGDFSKPFLLNQSRLRDVLLSIQIVPYGDREKLLISQDVTRFEKIEIMRRDFVANVSHELRTPLTVIGGFLETLLEENKISGEMEKNALRLMSDQAIRMRRLVEDLLTLSRLENAGNNLTEEQVDVVKLLQGLYQEAQSLSAGRHVISLNLASHAMLLGSEDELRSAFENLISNAVRYTPESGIISLNWVVENGKGLFYVQDSGIGIEPNHIPRLTERFYRVDRSRSRETGGTGLGLAIVKHVLNRHQASMEITSQPGAGSIFRIWFPSNRVLPAETAPVISSSPEHTKQNSAA”, the protein production entry was “failed”.

In the case of “MNSFWTFLQLIFVILQVTSLALYALLPAPWSDTVLVAMILFSLIIGIVIWWWSRRNALTAPFRQPFLSSDSLQLFEQVFNDLPTRVYWRDPELKLLGGNRAFANDFGIDPESLAGKTDAEIDSLASNDVLLERDRKTFSQQAPSVNAEIELKVSGKSQWVEHSSVPLYDDDHNIIGILGSYYDISGIKSVAEEMEKAKETAERANQSKGEFLANMSHEIRTPINAIVGMANLCLKTELTQKQKRYIKVIDSSSQALLGVINDILDFSKIDAGKLTVERIPFDLQDVLTSLADMFAYRAYDKDLEFIINLPANIPTRLIGDPLRLNQVLVNLISNAIKFTEDGEINVAVNLLDSSRDNVLLRISVTDTGIGMDEEQRANLFKAFTQADTSTTRKYGGTGLGLAISRRLILLMGGDIGVTSAAGQGSTFYIEVELPLQTEQDNSHHQYLLQKLKGVRILAIDDNLSTREMLYEMLRSYQVDVKVCRTAEQALQVFQLSVEDNNPYQLVLVDWRLPGMDGLEFCQKITERYAEDIRPKMTLATGYYAEELSEKAKQAGVNDIISKPFTASTLGRSLTSTLFQRELSDADDADSGDGIPESILRAPILVVEDNEINQQVAREILSSHKFKVDIVENGQLAVEAVHNKNYSLVLMDIQMPVMDGLKAAQTIRADFNYQQLPILAMTANAMSGDEERSLAAGMQGHIAKPIDEQQLIKAIIKWAVPGDYTNNQQPEVPPESKQDEVNKPPVRIPQVKGIEFETALKRLQYNVELYLKLVEQLYETYQGSATKVSDFITRGQHESARRYFHSLKGAAANLGFTQLQSKAADLEQFMAEGNIDKVADQITELEKRLRYAHQAAVDLEAIQQHQS”, the protein production entry is “failed”.
